Data: article doi:10.1101/2025.07.28.667166

How the values were obtained:
Experiment in all cases: NMR
[1] = biological target: His33 (UniProt position 33, TDWCGHCQAAQ); details: 298 K, 1 mM protein
[2] = biological target: Cys34 (UniProt position 34, DWCGHCQAAQP); details: 298 K; reduced (with DTT), 1 mM protein
[3] = biological target: Cys31 (UniProt position 31, FGTDWCGHCQA); details: 298 K; reduced (with DTT), 1 mM protein

Patrx2 (atypical thioredoxin, PA2694) (Pseudomonas aeruginosa)
pKa ([1]; oxidised (C31-C34 disulfide, without DTT)): less than 5
pKa ([1]; reduced (with DTT)): 6.3
pKa [2]: greater than 11.0
pKa [3]: 5.8
